Consider eleven molecules from patent WO2012074097A1 (dated 2012).

B1: anti-CD33 chimeric antibody KM4054 (antibody, V domains shown)
VH: QLQETGPGLVKPSQSLSLTCSVTGYTITSGYEWTWIRKFPGNRMEWMGYINSSGSTDYNPSLKSRVSITRDTSKNQFFLQLNSVTTEDTATYFCTRWDRWGPGVMVTVSS
VL: DVVLTQTLVAQPVRLGDQASISCRSSQSLVHSDGHTYLEWYLQKPGQSPQLLIYEISNRFSGVPDRFSGSGSGSDFTLKISRVEPEDLGLYYCFQGTHDLPTFGGGTKLELK
notes: Expressed in FUT8 knockout CHO cells, so no core fucose
B2: anti-CD33 monoclonal antibody KM4075 (antibody, V domains shown)
VH: QLQESGPGLVKPSQSLSLTCSVTGYTITSGSDWSWIRKFPGNKMEWMGYISYSGNTNYNPSLKSRISITRDTSKNQFFLHLNSVTTADTATYYCTGKGWGQGVMVTVSS
VL: DVVLTQTPVSLSVTLGDQASISCRSSQSLEYSDGYTYLEWYLQKPGHSPQLLIYGVSNRFSGVPDRFIGSGSGTDFTLRISRVEPEDLGVYYCFQATHDPYTFGAGTKLEL
notes: Hybridoma antibody from rat or mouse
B3: modified CD33 chimeric antibody ver.4 (KM4084) (antibody, V domains shown)
VH: B1 VH with S53A
VL: B1 VL
B4: modified CD33 chimeric antibody ver.3 (antibody, V domains shown)
VH: B1 VH with N51Q
VL: B1 VL
B5: modified CD33 chimeric antibody ver.2 (antibody, V domains shown)
VH: B1 VH with N51S
VL: B1 VL
B6: modified CD33 chimeric antibody ver.5 (antibody, V domains shown)
VH: B1 VH with S53G
VL: B1 VL
B7: modified CD33 chimeric antibody ver.1 (antibody, V domains shown)
VH: B1 VH with N51Y
VL: B1 VL
B8: anti-CD33 monoclonal antibody KM4072 (antibody, V domains shown)
VH: QVQLQQSGAELVKPGASVKMSCKASGYTFTTYPIEWMKQNHGKSLEWIGNFHPYNDDTEYNEKFKGKATLTVEKSSSTVYLELSRLTSDDSAVYYCARGYYYAMDYWGQGTSVTVSS
VL: DAVMTQTPLSLPVSLGDQASISCRSSQSLEDSNGNTYLNWYLQKPGQSPQLLIYRVSNRFSGVLDRFSGSGSGTDFTLKISRVEAEDLGVYFCLQLTHVPWTFGGGTKLEIK
notes: as for B2
B9: anti-CD33 monoclonal antibody KM4071 (antibody, V domains shown)
VH: QIQLVQSGPELKKPEETVKISCKASDYTFTDYSIHWVKQAPGKGLKWMGWINTETGETTNADDLKGRFAFSVETSASTAYLQINNLKNEDTATYFCARYRYDASYGMDYWGQGTSVTVSS
VL: STVLTQSPKSMSMSVGERVTLSCKASENVGTYVSWYQQKPEQSPELLIYGSSNRSTGVPDRFTGSGSATDFTLTISSVQAEDLADYHCGQSYSYPPTFGGGTRLEIK
notes: as for B2
B10: anti-CD33 monoclonal antibody KM4073 (antibody, V domains shown)
VH: QVKLLQSGAALVKPGASVKMSCKVSGYTFTDYWVNWVKQSHGKTLEWIGEIYPNSGATNFNEKFKDKATLTVDRSTSTAYLEFSRLTSEDSAIYYCSLGPYWGQGVMVTVSS
VL: DVVLTQTPPTLSATIGQSVSISCRSSQSLLDSDGQTYLNWFLQRPGQSPQLLIYSVSNLESGVPNRFSGSGSETDFTLKISGVEAEDLGLYYCMQATHAPLTFGSGTNLEIK
notes: as for B2
B11: anti-CD33 monoclonal antibody KM4074 (antibody, V domains shown)
VH: B1 VH
VL: B1 VL
notes: as for B2

Numbering of substitutions follows the chain as printed.

T3 sequence (P20138 18-259 limits assumed, change not shown): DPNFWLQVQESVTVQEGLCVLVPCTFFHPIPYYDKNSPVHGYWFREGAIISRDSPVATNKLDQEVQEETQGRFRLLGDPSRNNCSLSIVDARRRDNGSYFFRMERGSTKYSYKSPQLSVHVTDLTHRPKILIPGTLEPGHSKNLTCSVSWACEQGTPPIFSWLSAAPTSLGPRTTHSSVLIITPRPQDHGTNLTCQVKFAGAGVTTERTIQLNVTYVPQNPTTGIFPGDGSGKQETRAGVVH

The target in one test is T1, human CD33 on cells (human CD33-expressing CHO/DG44 cell line; CD33-positive cell lines THP-1, NB-4) (human, UniProt P20138 18-364).
T1 construct: The same entry is used here for the endogenous CD33 of THP-1, NB-4 and other leukemia lines; also called hCD33; CD33 transfectant
T1 sequence (P20138 other isoform, or with tags, fused parts or gaps limits assumed): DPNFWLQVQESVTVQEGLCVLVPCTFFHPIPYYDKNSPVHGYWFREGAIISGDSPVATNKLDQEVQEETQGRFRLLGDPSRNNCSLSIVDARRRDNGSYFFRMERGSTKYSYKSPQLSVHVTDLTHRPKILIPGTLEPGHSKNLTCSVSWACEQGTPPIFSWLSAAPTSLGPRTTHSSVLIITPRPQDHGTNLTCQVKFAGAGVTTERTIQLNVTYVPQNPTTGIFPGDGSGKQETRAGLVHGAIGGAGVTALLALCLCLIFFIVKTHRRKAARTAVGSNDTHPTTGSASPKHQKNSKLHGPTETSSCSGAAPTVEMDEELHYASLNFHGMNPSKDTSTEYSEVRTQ
Description: flow cytometry on THP-1 cells.
Regarding B1, the binding result is reported as “binds”.

As for B2, the binding result is “binds”.

Another test deals with T2, histidine-tagged soluble human CD33 (hCD33-His) (human, UniProt P20138 18-259).
T2 construct: Human CD33 extracellular region with six histidines at the C-terminus, made in CHO/DG44 cells
T2 sequence (P20138 other isoform, or with tags, fused parts or gaps limits assumed): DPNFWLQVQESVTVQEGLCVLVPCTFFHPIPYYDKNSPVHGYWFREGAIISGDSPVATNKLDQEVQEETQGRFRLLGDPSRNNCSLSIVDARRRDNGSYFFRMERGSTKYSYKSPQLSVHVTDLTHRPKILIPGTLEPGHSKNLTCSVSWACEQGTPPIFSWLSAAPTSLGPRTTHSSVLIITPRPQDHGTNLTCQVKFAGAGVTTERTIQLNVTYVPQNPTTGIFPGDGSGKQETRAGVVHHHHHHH
Description: SPR (Biacore T-100), antibody captured on anti-human IgG, hCD33-His as analyte.
For B1, the binding result is given as “binds”.

With B3, the binding result was “binds”.

Take B4: the binding result is “binds”.

Consider B5, for which the binding result is on record as “binds”.

As to B6, the binding result is recorded as “binds”.

As for B7, the binding result is recorded as “binds”.

The next test has as its target T1, human CD33 on cells (human …). Briefly: FMAT on human CD33-expressing CHO/DG44 cells, hybridoma supernatant.
For the molecule B8, the binding result is given as “binds”.

For B9, the binding result is “binds”.

For B10, the binding result is “binds”.

As to B11, the binding result was “binds”.

The next test has as its target T3, Recombinant human Siglec-3 (CD33)/Fc Chimera (R&D Systems, catalog number 1137-SL) (human, UniProt P20138 18-259).
T3 construct: Bought product; also called recombinant human CD33-Fc; not shown: Fc part of the bought fusion protein; not described
Description: SPR (Biacore T-100), antibody captured on anti-mouse IgG, CD33-Fc as analyte.
Turning to B9, the binding result is given as “binds”.

In the case of B10, the binding result is listed as “binds”.

For the molecule B11, the binding result is on record as “binds”.

B2: the binding result was “binds”.

In another test the target is T3, Recombinant human Siglec-3 (CD33)/Fc …. Briefly: binding ELISA, CD33-Fc on the plate.
Consider B1, for which the binding result was “binds”.
